{"source": "the nanobody polyreactivity screen of Harvey et al. (2022)", "data": [{"test": "yeast display, Sf9 membrane polyspecificity reagent, FACS + sequencing; frameworks hold sequencing errors", "outline": "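A synthetic nanobody library was expressed on Saccharomyces cerevisiae BJ5465 by galactose induction for 36–48 hours. The library was stained for 1 hour at 4 °C with 10% biotinylated, detergent-solubilized Sf9 membrane reagent and enriched with streptavidin microbeads before FACS. Low and high (top ~1%) gates were set on anti-HA fluorescence for expression and streptavidin fluorescence for reagent binding, and each polyreactivity label reflects the gate of origin.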", "values": [{"sequence": "QVQLVESGGGLVQAGGSLRLSCAASGITFSTYAMGWYRQAPGKERELVAAINWSGGSTRYADSVKGRFTISRDNAKNTVYLQMNSLKPEDTAVYYCAAEVQGQVGEFDYWGQGTQVTVSS", "polyreactivity (PSR sort gate)": "low polyreactivity"}, {"sequence": "QVQLVESGGGLVQAGGSLRLSCAASGITFSVYAMGWYRQAPGKERELVAAISGSGGSTYYADSVKGRFTISRDNAKNTVYLQMNSLKPEDTAVYYCAARLAQKYSPTRYNYWGQGTQVTVSS", "polyreactivity (PSR sort gate)": "high polyreactivity"}, {"sequence": "QVQLVESGGGLVQAGGSLRLSCAASGITFSVYAMGWYRQAPGKERELVASISSGGTSTYYADSVKGRFTISRDNAKNTVYLQMNSLKPEDTAVYYCAAYSYYTGDQYSYDYWGQGTQVTVSS", "polyreactivity (PSR sort gate)": "low polyreactivity"}, {"sequence": "QVQLVESGGGLVQAGGSLRLSCAASGITFSYYAMGWYRQAPGKEREFVAAINWDGGSTYYADSVKGRFTISRDNAKNTVYLQMNSLKPEDTAVYYCNADEFEYIYVDTLNYGDDYWGQGTQVTVSS", "polyreactivity (PSR sort gate)": "low polyreactivity"}, {"sequence": "QVQLVESGGGLVQAGGSLRLSCAASGITFTAYAMGWYRQAPGKERELVATINSTGITNYADSVKGRFTISRDNAKNTVYLQMNSLNPEDTAVYYCAADLLDISSYDGMDYWGQGTQVTVSS", "polyreactivity (PSR sort gate)": "low polyreactivity"}, {"sequence": "QVQLVESGGGLVQAGGSLRLSCAASGITFTDYAMGWYRQAPGKERELVAAISGIGSTTYYADSVKGRFTISRDNAKNTVYLQMNSLKPEDTAVYYCNALLAYTYWYDYWGQGTQLTVSS", "polyreactivity (PSR sort gate)": "high polyreactivity"}, {"sequence": "QVQLVESGGGLVQAGGSLRLSCAASGITFTDYAMGWYRQAPGKERELVAAISSSGGRTYYADSVKGRFTISRDNAKNTVYLQMNSLKPEDTAVYYCAARDYDRTQSGRDYWGQGTQVTVSS", "polyreactivity (PSR sort gate)": "high polyreactivity"}, {"sequence": "QVQLVESGGGLVQAGGSLRLSCAASGITFTENLMGWYRQAPGKERELVAGISRSGGITYFADSVKGRFTISRDNAKNTVYLQMNSLKPEDTSVYYCAADFYASYSPYYYWGQGTQVTVSS", "polyreactivity (PSR sort gate)": "high polyreactivity"}, {"sequence": "QVQLVESGGGLVQAGGSLRLSCAASGITFTFNAMGWYRQAPGKERELVAAISSTTSTKYADSVKGRFTISRDNAKTTVYLQMNSLKPEDTAVYYCARTYWLRYYGYRDDEYDYWGQGTQVTVSS", "polyreactivity (PSR sort gate)": "low polyreactivity"}, {"sequence": "QVQLVESGGGLVQAGGSLRLSCAASGITFTFNAMGWYRQAPGKERELVAAITWSGGSTFYADSVKGRFTISRDNAKNTVDLQMNSLKPEDTAVYYCARDTELYVRWLDYWGQGTQVTVSS", "polyreactivity (PSR sort gate)": "low polyreactivity"}, {"sequence": "QVQLVESGGGLVQAGGSLRLSCAASGITFTFNAMGWYRQAPGKERELVAAITWSGGSTFYADSVKGRFTISRDNAKNTVYLQMNSLKPEDTAVYYCARDTELYVRWLDYWGQGTQVSVSS", "polyreactivity (PSR sort gate)": "low polyreactivity"}, {"sequence": "QVQLVESGGGLVQAGGSLRLSCAASGITFTFYAMGWYRQAPGKERELVATIDSGGSTNYADSVKGRFTISRDNAKNTVYLQMNSLKPEDTEVYYCAADGVWYYYDMDYWGQGTQVTVSS", "polyreactivity (PSR sort gate)": "low polyreactivity"}, {"sequence": "QVQLVESGGGLVQAGGSLRLSCAASGITFTGYAMGWYRQAPGKERELVAAITSGGGRTYYADSVKGRFTISRDNAKNTVYLQMNSLKPEDTAVYYCAFRYHGYDYWGQGTQVTVSS", "polyreactivity (PSR sort gate)": "high polyreactivity"}, {"sequence": "QVQLVESGGGLVQAGGSLRLSCAASGITFTPNAMGWYRPAPGKEREFVAAITYSGGSTYYADSVKGRFTISRDNAKNTVYLQMNSLKPEDTAVYYCAAVYYLLYYEAYYYWGQGTQVTVSS", "polyreactivity (PSR sort gate)": "low polyreactivity"}, {"sequence": "QVQLVESGGGLVQAGGSLRLSCAASGITFTPYALGWSRPAPGKERELVAAISASGGNTYYADSVKGRFTISRDNAKNTVYLQMNSLKPDDTAVYYCAAVVAFATGTYYYWGQGTQVTVSS", "polyreactivity (PSR sort gate)": "high polyreactivity"}, {"sequence": "QVQLVESGGGLVQAGGSLRLSCAASGITFTRNVMGWYRQAPGKERELVAAISGSGGSTYYADSVKGRFTISRDNAKNTVYLQMNSLKPEDTAVYYCAARSRGGRRYDYWGQGTQVTVSS", "polyreactivity (PSR sort gate)": "high polyreactivity"}, {"sequence": "QVQLVESGGGLVQAGGSLRLSCAASGITFTRYAMGWYRQAPGKEMEFVAAIRRSGGNTYYADSVKGRFTISRDNAKNTVYLQMNSLKPEDTAVYYCAASFRKTSPTRLVDYWGQGTQVTVSS", "polyreactivity (PSR sort gate)": "low polyreactivity"}, {"sequence": "QVQLVESGGGLVQAGGSLRLSCAASGITFTSYAMGWYRQAPGKERELVAAISSSGVRTYYADSVKGRFTISRDNAKNTVYLQMNSLKPEDTAVYYCATRRRVLNCYDYWGQGTQVTVSS", "polyreactivity (PSR sort gate)": "high polyreactivity"}, {"sequence": "QVQLVESGGGLVQAGGSLRLSCAASGITFTYYVMGWYRQAPGKERELVAAITWRGGRTRYADSVKGRFTISRDNAKNTVYLQMNSLKPEDTAVYYCAADLHQRRYYYWGQGTQVTVSS", "polyreactivity (PSR sort gate)": "high polyreactivity"}, {"sequence": "QVQLVESGGGLVQAGGSLRLSCAASGITFVANAMGWYRQAPGKERELVAGITQTGGSTYYADSVKGRFTISRDNAKNTVYLQMNSLKPEDTAVYYCAATYRRLRYGKLLYYWGQGTQVTVSS", "polyreactivity (PSR sort gate)": "high polyreactivity"}, {"sequence": "QVQLVESGGGLVQAGGSLRLSCAASGITFVDYAMGWYRQAPGKERELVAAITTGGSTNYADSVKGRFTISRDNAKNTVYLQMNSLKPEDTAVYYCNKRPVILYDYWGQGTQVTVSS", "polyreactivity (PSR sort gate)": "low polyreactivity"}, {"sequence": "QVQLVESGGGLVQAGGSLRLSCAASGITFVFNAMGWYRQAPGKERELVASITIGGNTYYADSVKGRFTISRDNAKNTVYLQMNSLKPEDSAVYYCAADIARSVRFYYWGQGTQVTVSS", "polyreactivity (PSR sort gate)": "low polyreactivity"}, {"sequence": "QVQLVESGGGLVQAGGSLRLSCAASGITFVFYAMGRYRPAPGKERELVAAISSSGGSTYYADSVKGRFTISRDNAKNTVYLQMNSLKAEDTAVYYCNAKVFSYQGAVRYDYWGQGTQVTVSS", "polyreactivity (PSR sort gate)": "high polyreactivity"}, {"sequence": "QVQLVESGGGLVQAGGSLRLSCAASGITFVFYTMGWYRQAPGKERELVAAISRSGASTYYADSVKGRFTISRDNAKNTVYLQMNSLKPEDTAVYYCAADRGYRFRMDYWGQGTQVTVSS", "polyreactivity (PSR sort gate)": "high polyreactivity"}, {"sequence": "QVQLVESGGGLVQAGGSLRLSCAASGITFVHYAMGWYRQAPGKEREFVAAITKGGGSTSYADSVKGRFTISRDNAKNTVYLQMNSLKPEDTAVYYCAATYYAYGFSISYYYWGQGTQVTVSS", "polyreactivity (PSR sort gate)": "high polyreactivity"}, {"sequence": "QVQLVESGGGLVQAGGSLRLSCAASGITFVHYAMGWYRQAPGKERELVASITRRGGSTYYADSVKGRFTISRDNAKNTVYLQMHSLKPEDTAVYYCAARWSAWSGYIFDYWGQGTQVTVSS", "polyreactivity (PSR sort gate)": "high polyreactivity"}, {"sequence": "QVQLVESGGGLVQAGGSLRLSCAASGITFVNNAMGWYRQAPGKEREFVAAISWSGGNTYYADSVKGRFTISRDNAKNTVYLQMISLKPEDTAVYYCSGYISRSRFRFYYWGQGTQVTVSS", "polyreactivity (PSR sort gate)": "low polyreactivity"}, {"sequence": "QVQLVESGGGLVQAGGSLRLSCAASGITFVNYAMGWYRQAPGKERELVAAITSGGNTYYADSVKGRFTISRDNAKNTVYLQMNSLKPEDTAVYYCAAKWFYGKPYRGYYYWGQGTQVTVSS", "polyreactivity (PSR sort gate)": "high polyreactivity"}, {"sequence": "QVQLVESGGGLVQAGGSLRLSCAASGITFVRYAKGWYRHAPGKEREFVARISRSGASTYYADSVKGRFTISRDNAKNTVYLQMNSLKPEDTAVYYCNAVPGGSRFDYWGQGTQVTVSS", "polyreactivity (PSR sort gate)": "high polyreactivity"}, {"sequence": "QVQLVESGGGLVQAGGSLRLSCAASGITFVRYAMGWYRQAPGKERELVAVISRGGITNYADSVKGRFTISRDNAKNTVYLQMNSMKPEDTAVYYCAVRGRSYVRTYDYWGQGTQVTVSS", "polyreactivity (PSR sort gate)": "high polyreactivity"}, {"sequence": "QVQLVESGGGLVQAGGSLRLSCAASGITFVSNVMGWYRQAPGKEREFVAAINVSGDSTTYADSVKGRFTISRDNAKNTVYLQRNSLKPEDTAVYYCAAEYNFPEFPWGGEYDYWGQGTQVTVSS", "polyreactivity (PSR sort gate)": "low polyreactivity"}, {"sequence": "QVQLVESGGGLVQAGGSLRLSCAASGITFVYYAMGWYRQAPGKERELVASISSADNTHYADSVKGRFTISRDNAKNTVYLQMNSQKPEDTAVYYCAADYWWNLRHYSTGGYWGQGTQVTVSS", "polyreactivity (PSR sort gate)": "low polyreactivity"}, {"sequence": "QVQLVESGGGLVQAGGSLRLSCAASGITFWDYAMGWYRQAPGTERELVAANSRSGGSTYYADSVKGRFTISRDNAKKTVYLQMNSLKPEDTAVYFCAAYTRRPIYDYWGQGTQVTVSS", "polyreactivity (PSR sort gate)": "high polyreactivity"}, {"sequence": "QVQLVESGGGLVQAGGSLRLSCAASGITFWGYAMGWYRQAPGKEREFVARINWSGGRTYYAESVKGRFTISRDNAKKTVYLQMNSLKPEDTAVYYCAATSRIYGYRTYDDWGQGTQVTVSS", "polyreactivity (PSR sort gate)": "high polyreactivity"}, {"sequence": "QVQLVESGGGLVQAGGSLRLSCAASGITFWKYTMGWYRQAPGKERELVAAITGRGGSTYYADSVKGRFTISRDNAMNTVYLQMNRLKPEDTAVYYCAAELRPGYRSSYGLIYDYWGQGTQVTVSS", "polyreactivity (PSR sort gate)": "low polyreactivity"}, {"sequence": "QVQLVESGGGLVQAGGSLRLSCAASGITFWNNAMGWYRQAPGKERELVATISSNGGRTYYADSVKGRFTISRDNAKNTVYLQMNSLKPEDTAVYYCNAARRAYGYNYWGQGTQVTVSS", "polyreactivity (PSR sort gate)": "low polyreactivity"}, {"sequence": "QVQLVESGGGLVQAGGSLRLSCAASGITFWNYAMGWYRQAPGKERELVARISRGGSTNYADSVKGRFTISRDNAKNTVYLQMNSLKPEDNAVYYCAARWYSSTQTGNYWGQGTQVTVSS", "polyreactivity (PSR sort gate)": "high polyreactivity"}, {"sequence": "QVQLVESGGGLVQAGGSLRLSCAASGITFWSNAMGWYRQAPGKERELVAAITSSGGSTYYADSVKGRFTISRDNAKNNVYLQMNSLKPEDTAVYYCAAPISRSAGWDSYDYWGQGTQVTVSS", "polyreactivity (PSR sort gate)": "low polyreactivity"}, {"sequence": "QVQLVESGGGLVQAGGSLRLSCAASGITFWTYAMGWYIQAPGKERELVAAISNGGSTSYADSVKGRFTISRDNAKNTVYLQMNSLKPEDTAVYYCAADWATHRPWYWWVYYWGQGTQVTVSS", "polyreactivity (PSR sort gate)": "low polyreactivity"}, {"sequence": "QVQLVESGGGLVQAGGSLRLSCAASGITFWYYAMGWYRQAPGKERELVAVISRGGSTYYADSVKGRFTISRDNAKNTVYLQMNSLKPEDTAVYYCAARPRWYTYTRQEYDYWGQGTQVTVSS", "polyreactivity (PSR sort gate)": "high polyreactivity"}, {"sequence": "QVQLVESGGGLVQAGGSLRLSCAASGITFYDYAMGWYRQAPGKERELVAAINSSGVRTYYADSVKGRFTISRDNAKNTVYLQMNSLKPEVTAVYYCAAVRRGPYISRSDMDYYWGQGTQVTVSS", "polyreactivity (PSR sort gate)": "high polyreactivity"}, {"sequence": "QVQLVESGGGLVQAGGSLRLSCAASGITFYDYAMGWYRQAPGKERELVAAISFSGSRTYYADSVKGRFTISRDIAKNTVYLQMNSLKPEDTAVYYCAASQARNYKIYDYWGQGTQVTVSS", "polyreactivity (PSR sort gate)": "high polyreactivity"}, {"sequence": "QVQLVESGGGLVQAGGSLRLSCAASGITFYDYTMGWYRQAPGKERELVAAISSRGGSTYYADSVKGRFTISRDNAKNTVYLQMNSLKPEDTAVYYCNADYIYSFYWSFYEYDYWGQGTQVTVSS", "polyreactivity (PSR sort gate)": "high polyreactivity"}]}]}
